Source: patent US20040235726A1, “Glucagon-like peptides (glp-1) and treatment of respiratory distress” (priority 2001, published 2004)
“And” between values parts separate entries of the source, which are not always exact repeats. Identical values can stand only once. Where no end group is shown, it is not given here.

Target: T1, human GLP-1 receptor (Homo sapiens, UniProt P43220)
T1 construct: expressed in transfected cells; host or cells: HEK-293 Aurora CRE-BLAM cells
Experiment: In vitro potency assay (GLP-1 receptor signaling, CRE-BLAM reporter)
Type: cell-based
Conditions: HEK-293 Aurora CRE-BLAM cells expressing the human GLP-1 receptor; EC50-based potency relative to Val^8-GLP-1 (7-37)OH (=1.0); several values in a cell are repeat determinations
Description: The extent of the induction of cAMP levels can then be measured using a cAMP response element which drives the expression of a reporter gene such as luciferase or beta lactamase.
These HEK-293 cells have stably integrated a DNA vector having a cAMP response element (CRE) driving expression of the β-lactamase (BLAM) gene. […] The assay is further described in Zlokarnik, et al. (1998) Science 279:84-88 (See also Example 3).
The day after seeding, the medium is replaced with plasma free medium.

T1 sequence (P43220 24-463): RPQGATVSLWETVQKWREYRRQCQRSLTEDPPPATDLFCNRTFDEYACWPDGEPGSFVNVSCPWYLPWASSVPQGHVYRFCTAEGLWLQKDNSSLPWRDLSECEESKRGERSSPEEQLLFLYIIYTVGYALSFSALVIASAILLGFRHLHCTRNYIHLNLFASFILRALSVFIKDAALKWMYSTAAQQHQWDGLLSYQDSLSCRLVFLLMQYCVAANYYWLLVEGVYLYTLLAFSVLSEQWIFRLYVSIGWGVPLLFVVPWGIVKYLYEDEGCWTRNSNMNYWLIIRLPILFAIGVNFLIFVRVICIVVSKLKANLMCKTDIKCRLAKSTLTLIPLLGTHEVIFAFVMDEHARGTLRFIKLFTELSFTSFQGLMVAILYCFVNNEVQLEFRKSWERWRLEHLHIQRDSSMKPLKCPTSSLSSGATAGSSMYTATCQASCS

Row | Molecule | GLP-1 receptor activation relative to Val^8-GLP-1 (7-37) OH
1 | Val^8-Glu^22-Ile^33-GLP-1 (7-37) OH (HVEGTFTSDVSSYLEEQAAKEFIAWLIKGRG) | 4.7 and 3.8 and 3.4
2 | Val^8-Glu^22-Val^25-GLP-1 (7-37) OH (HVEGTFTSDVSSYLEEQAVKEFIAWLVKGRG) | 4.7 and 2.9
3 | Val^8-Glu^22-Val^25-Ile^33-GLP-1 (7-37) OH (HVEGTFTSDVSSYLEEQAVKEFIAWLIKGRG) | 4.9 and 5.8 and 6.7
4 | Val^8-Glu^30-GLP-1 (7-37) OH (HVEGTFTSDVSSYLEGQAAKEFIEWLVKGRG) | 0.6 and 0.7
5 | Val^8-His^37-GLP-1 (7-37) OH (HVEGTFTSDVSSYLEGQAAKEFIAWLVKGRH) | 0.7 and 1.2
6 | Val^8-Lys^33-Asn^34-GLP-1 (7-37) OH | 0.2
7 | Val^8-Trp^16-Glu^22-GLP-1 (7-37) OH (HVEGTFTSDWSSYLEEQAAKEFIAWLVKGRG) | 4.9 and 4.6
8 | Val^8-Tyr^12-GLP-1 (7-37) OH (HVEGTYTSDVSSYLEGQAAKEFIAWLVKGRG) | 1.7 and 1.8
9 | Val^8-Tyr^16-GLP-1 (7-37) OH (HVEGTFTSDYSSYLEGQAAKEFIAWLVKGRG) | 2.6 and 2.5
10 | Val^8-Tyr^16-Glu^22-GLP-1 (7-37) OH (HVEGTFTSDYSSYLEEQAAKEFIAWLVKGRG) | 3.6 and 3.8
11 | Val^8-Tyr^18-Glu^22-GLP-1 (7-37) OH (HVEGTFTSDVSYYLEEQAAKEFIAWLVKGRG) | 5.1 and 5.9

Same assay, conditions: in vitro potency relative to Val^8-GLP-1 (7-37)OH

Row | Molecule | potency higher than Val^8-GLP-1 (7-37)OH
12 | Exendin-4 [reference compound] | approximately 5 fold
13 | Val^8-Glu^22-GLP-1 (7-37) OH (HVEGTFTSDVSSYLEEQAAKEFIAWLVKGRG) | approximately 3 fold

Target: human GLP-1 receptor (human, UniProt P43220 24-463)
Experiment: cell-based or functional assay
Conditions: not given

Row | Molecule | GLP-1 receptor activation relative to Val^8-GLP-1 (7-37) OH
14 | HVEGTFTSDVSSYLEGQAAKEFIAWLVGKRG-OH [Val^8-Gly^34-Lys^35-GLP-1 (7-37) OH] | 0.7 relative to Val^8-GLP-1 (7-37) OH
15 | HVEGTFTSDLSSYLEGQAAEEFIAWLVKGRG-OH [Val^8-Leu^16-Glu^26-GLP-1 (7-37) OH] | 0.5 relative to Val^8-GLP-1 (7-37) OH
16 | HVEGTFTSDVSSYLEGQAAKEFIAWLVKGGP-NH2 [Val^8-Gly^36-Pro^37-GLP-1 (7-37) NH2] | 1.2 relative to Val^8-GLP-1 (7-37) OH
17 | HVEGTFTSDVSSYLEGQAAKEFIAWLKNGRG-OH [Val^8-Lys^33-Asn^34-GLP-1 (7-37) OH] | 0.2 relative to Val^8-GLP-1 (7-37) OH
18 | HVEGTFTSDVSSYLEKQAAKEFIEWLVKGRG-OH [Val^8-Lys^22-Glu^30-GLP-1 (7-37) OH] | 0.8 relative to Val^8-GLP-1 (7-37) OH
19 | HVEGTFTSDVSSYLEGQAAKEFIAWLKVGRG-OH [Val^8-Lys^33-Val^34-GLP-1 (7-37) OH] | 0.2 relative to Val^8-GLP-1 (7-37) OH
20 | HVEGTFTSDVSSYLEKEAAKEFIAWLVKGRG-OH [Val^8-Lys^22-Glu^23-GLP-1 (7-37) OH] | 0.8 relative to Val^8-GLP-1 (7-37) OH
21 | HVEGTFTSDVSSYLEEKAAKEFIAWLVKGRG-OH [Val^8-Glu^22-Lys^23-GLP-1 (7-37) OH] | 3.1 relative to Val^8-GLP-1 (7-37) OH
